Source: US20060257904, “Agglomeration protein cascades, compositions and methods regarding the same” (Q-RNA, Inc., published 2006)

Columns and labels:
[1] = target: T1, hrPrP23-231 (pEHPrP23-231) (Homo sapiens, UniProt P04156 P04156:23-231); assay: EMSA; conditions: tags: untagged; E. coli BL21(DE3) pLysS; label: 32P internal
[2] = target: lysozyme (UniProt P00698 P00698:19-147); assay: filter; background; 20 nM protein, 2 nM RNA, 10 ng/ul tRNA; conditions: label: 32P internal
[3] = target: BSA (UniProt P02769 P02769:25-607); assay: as above; conditions: tags: Ambion; label: 32P internal
[4] = target: hrPrP23-144 (N-terminal fragment) (Homo sapiens, UniProt P04156 P04156:23-144); assay: filter; 20 nM protein, Buffer B plus tRNA; conditions: tags: GST fusion removed by thrombin; label: 32P internal
[5] = target: hrPrP90-231 (C-terminal fragment) (Homo sapiens, UniProt P04156 P04156:90-231); assay: filter; conditions: tags: GST fusion removed by thrombin; label: 32P internal
[6] = target: Tau23 (0N3R) (UniProt P10636-2 P10636-2:1-352); assay: EMSA; 125 ng RNA, 1 ug Tau, protection buffer pH 7.4; conditions: tags: 6-His; label: 32P internal
[7] = target: Tau441 (2N4R) (UniProt P10636-8 P10636-8:1-441); assay: EMSA; 125 ng RNA, 1 ug Tau; affinity differs from Tau23; conditions: tags: no His tag; rPeptide; label: 32P internal
[8] = target: T1, hrPrP23-231 (pEHPrP23-231); assay: EMSA; 55 nM hrPrP, 10% BCS plus tRNA, urea gel; conditions: tags: untagged; E. coli BL21(DE3) pLysS; label: 32P internal

Binder	binding result [1]	binding result [2]	binding result [3]	binding result [4]	binding result [5]	binding result [6]	binding result [7]	binding result [8]
RQ11+12 (ssRNA) RNA: GGGGUUUCCAACCGGAAUUUGAGGGAUGCCUAGGCAUCCCCCGUGCGUCCCUUUACGAGGGAUUGUCGACUCUAGUCGACGUCUGGGCGAAAAAUGUACGAGAGGACCUUUUCGGUACAGACGGUACCUGAGGGUAUGCCUAGGCAUCCCCCGCGCCGGUUUCGGACCUCCAGUGCGUGUUACCGCACUGUCGACCC	binds	no binding	no binding	binds	no binding	binds	binds	–
MNV:AP1 (PrP-Amp) (ssRNA) RNA: GGGUUCAUAGCCUAUUCGGCUUCGCGCAUGGGAAUUUGAGGGACGAUGGGGAAGUGGGAGCGCGUUUUAAAGGACCUUUUUCCCUCGCGUAGCUAGCUACGCGAGGUGACCCCCCGAAGGGGGGUGCCCC	–	–	–	–	–	–	–	binds
